Source: the supplement of paper PMC9112550, “Optimization of the antimicrobial peptide Bac7 by deep mutational scanning” (BMC Biology, 2022)

What follows are sequences tested on Escherichia coli TOP10 (assay: shrunken log2 fold change of peptide-encoding DNA abundance (4.5 h post-induction vs induction); higher = less antimicrobial activity (less host growth inhibition)). Settings: time post-induction: 4.5 h; library: site-saturation at positions 5, 18, 19, 20.
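Also: peptides expressed intracellularly from a pBAD plasmid library in pooled LB shake-flask culture, induced with 0.3% L-arabinose, DNA abundance read by NGS, three biological replicates, DESeq2 with apeglm shrinkage.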

Row | Sequence | shrunken log2 fold change
1 | RRIRYRPPRLPRPRPRPNDTPRP | -0.921
2 | RRIRYRPPRLPRPRPRPNELPRP | -0.717
3 | RRIRYRPPRLPRPRPRPNEMPRP | 0.0143
4 | RRIRYRPPRLPRPRPRPNFWPRP | 0.293
5 | RRIRYRPPRLPRPRPRPNGKPRP | -0.186
6 | RRIRYRPPRLPRPRPRPNIPPRP | -1.09
7 | RRIRYRPPRLPRPRPRPNIVPRP | -0.224
8 | RRIRYRPPRLPRPRPRPNKDPRP | -1.01
9 | RRIRYRPPRLPRPRPRPNKQPRP | -0.0515
10 | RRIRYRPPRLPRPRPRPNLGPRP | -0.0146
11 | RRIRYRPPRLPRPRPRPNMFPRP | -0.186
12 | RRIRYRPPRLPRPRPRPNMWPRP | -0.391
13 | RRIRYRPPRLPRPRPRPNNEPRP | -1.27
14 | RRIRYRPPRLPRPRPRPNPTPRP | 0.0161
15 | RRIRYRPPRLPRPRPRPNQEPRP | 0.000655
16 | RRIRYRPPRLPRPRPRPNQFPRP | -0.533
17 | RRIRYRPPRLPRPRPRPNQIPRP | -0.0468
18 | RRIRYRPPRLPRPRPRPNQWPRP | 0.00192
19 | RRIRYRPPRLPRPRPRPNSNPRP | -1.47
20 | RRIRYRPPRLPRPRPRPNTVPRP | -0.301
21 | RRIRYRPPRLPRPRPRPNYFPRP | -1.69
22 | RRIRYRPPRLPRPRPRPPACPRP | -0.146
23 | RRIRYRPPRLPRPRPRPPDVPRP | -0.0764
24 | RRIRYRPPRLPRPRPRPPEDPRP | -0.145
25 | RRIRYRPPRLPRPRPRPPFFPRP | -0.0804

Row | Sequence | shrunken log2 fold change
26 | RRIRYRPPRLPRPRPRPPFGPRP | -0.386
27 | RRIRYRPPRLPRPRPRPPFHPRP | -0.589
28 | RRIRYRPPRLPRPRPRPPFIPRP | -0.637
29 | RRIRYRPPRLPRPRPRPPGEPRP | 0.0198
30 | RRIRYRPPRLPRPRPRPPHRPRP | -0.0877
31 | RRIRYRPPRLPRPRPRPPIPPRP | 0.31
32 | RRIRYRPPRLPRPRPRPPKDPRP | 0.0611
33 | RRIRYRPPRLPRPRPRPPKGPRP | -0.163
34 | RRIRYRPPRLPRPRPRPPKWPRP | 0.223
35 | RRIRYRPPRLPRPRPRPPLYPRP | 0.755
36 | RRIRYRPPRLPRPRPRPPPGPRP | 0.909
37 | RRIRYRPPRLPRPRPRPPSEPRP | -0.0723
38 | RRIRYRPPRLPRPRPRPPSNPRP | -0.266
39 | RRIRYRPPRLPRPRPRPPTCPRP | -0.163
40 | RRIRYRPPRLPRPRPRPPWGPRP | -0.0336
41 | RRIRYRPPRLPRPRPRPPWNPRP | -0.161
42 | RRIRYRPPRLPRPRPRPPWWPRP | 0.605
43 | RRIRYRPPRLPRPRPRPPYPPRP | -0.257
44 | RRIRYRPPRLPRPRPRPPYTPRP | -0.94
45 | RRIRYRPPRLPRPRPRPQAAPRP | -0.195
46 | RRIRYRPPRLPRPRPRPQEMPRP | -0.0143
47 | RRIRYRPPRLPRPRPRPQFKPRP | -0.134
48 | RRIRYRPPRLPRPRPRPQGGPRP | 0.0299
49 | RRIRYRPPRLPRPRPRPQHMPRP | -0.629
50 | RRIRYRPPRLPRPRPRPQHSPRP | -0.978

Row | Sequence | shrunken log2 fold change
51 | RRIRYRPPRLPRPRPRPQIDPRP | 0.0753
52 | RRIRYRPPRLPRPRPRPQITPRP | -0.918
53 | RRIRYRPPRLPRPRPRPQKFPRP | -0.0224
54 | RRIRYRPPRLPRPRPRPQLAPRP | -0.228
55 | RRIRYRPPRLPRPRPRPQMTPRP | 0.0454
56 | RRIRYRPPRLPRPRPRPQNFPRP | -0.00184
57 | RRIRYRPPRLPRPRPRPQQEPRP | -0.0075
58 | RRIRYRPPRLPRPRPRPQQPPRP | 0.0699
59 | RRIRYRPPRLPRPRPRPQRWPRP | -0.13
60 | RRIRYRPPRLPRPRPRPQSFPRP | -0.0418
61 | RRIRYRPPRLPRPRPRPQSHPRP | -0.416
62 | RRIRYRPPRLPRPRPRPQSYPRP | -0.0246
63 | RRIRYRPPRLPRPRPRPQVLPRP | -0.725
64 | RRIRYRPPRLPRPRPRPQYLPRP | -3.15
65 | RRIRYRPPRLPRPRPRPQYYPRP | -1.52
66 | RRIRYRPPRLPRPRPRPRAMPRP | -0.0749
67 | RRIRYRPPRLPRPRPRPRAPPRP | 0.271
68 | RRIRYRPPRLPRPRPRPRCLPRP | -0.0564
69 | RRIRYRPPRLPRPRPRPRCWPRP | 0.136
70 | RRIRYRPPRLPRPRPRPRDHPRP | -0.308
71 | RRIRYRPPRLPRPRPRPRDPPRP | 0.271
72 | RRIRYRPPRLPRPRPRPREQPRP | -0.659
73 | RRIRYRPPRLPRPRPRPREVPRP | 0.00495
74 | RRIRYRPPRLPRPRPRPRGAPRP | 1.34
75 | RRIRYRPPRLPRPRPRPRGYPRP | -0.365

Row | Sequence | shrunken log2 fold change
76 | RRIRYRPPRLPRPRPRPRHAPRP | -0.0916
77 | RRIRYRPPRLPRPRPRPRHLPRP | -0.142
78 | RRIRYRPPRLPRPRPRPRINPRP | -0.196
79 | RRIRYRPPRLPRPRPRPRISPRP | -0.218
80 | RRIRYRPPRLPRPRPRPRLHPRP | -0.415
81 | RRIRYRPPRLPRPRPRPRLIPRP | -0.466
82 | RRIRYRPPRLPRPRPRPRNGPRP | 0.0466
83 | RRIRYRPPRLPRPRPRPRNNPRP | -0.738
84 | RRIRYRPPRLPRPRPRPRRAPRP | 0.364
85 | RRIRYRPPRLPRPRPRPRREPRP | 0.0181
86 | RRIRYRPPRLPRPRPRPRRHPRP | -0.103
87 | RRIRYRPPRLPRPRPRPRRTPRP | -0.202
88 | RRIRYRPPRLPRPRPRPRSCPRP | -0.434
89 | RRIRYRPPRLPRPRPRPRSSPRP | 0.069
90 | RRIRYRPPRLPRPRPRPRTCPRP | -0.134
91 | RRIRYRPPRLPRPRPRPRTEPRP | -0.188
92 | RRIRYRPPRLPRPRPRPRVNPRP | 0.00364
93 | RRIRYRPPRLPRPRPRPRWPPRP | 0.498
94 | RRIRYRPPRLPRPRPRPRYGPRP | -0.678
95 | RRIRYRPPRLPRPRPRPRYWPRP | -0.317
96 | RRIRYRPPRLPRPRPRPSALPRP | -0.638
97 | RRIRYRPPRLPRPRPRPSCSPRP | -0.972
98 | RRIRYRPPRLPRPRPRPSCTPRP | -1.36
99 | RRIRYRPPRLPRPRPRPSEMPRP | -0.765
100 | RRIRYRPPRLPRPRPRPSFMPRP | -0.759

Row | Sequence | shrunken log2 fold change
101 | RRIRYRPPRLPRPRPRPSHYPRP | -0.966
102 | RRIRYRPPRLPRPRPRPSKKPRP | -0.0925
103 | RRIRYRPPRLPRPRPRPSLWPRP | -0.0532
104 | RRIRYRPPRLPRPRPRPSMDPRP | -1.85
105 | RRIRYRPPRLPRPRPRPSNPPRP | -0.512
106 | RRIRYRPPRLPRPRPRPSPCPRP | -0.8
107 | RRIRYRPPRLPRPRPRPSQHPRP | -0.683
108 | RRIRYRPPRLPRPRPRPSRFPRP | -0.074
109 | RRIRYRPPRLPRPRPRPSRGPRP | -0.0776
110 | RRIRYRPPRLPRPRPRPSRHPRP | -0.649
111 | RRIRYRPPRLPRPRPRPSRTPRP | -0.342
112 | RRIRYRPPRLPRPRPRPSSDPRP | -0.218
113 | RRIRYRPPRLPRPRPRPSSKPRP | -1
114 | RRIRYRPPRLPRPRPRPSTEPRP | -0.435
115 | RRIRYRPPRLPRPRPRPSTNPRP | -0.757
116 | RRIRYRPPRLPRPRPRPSYMPRP | -1.41
117 | RRIRYRPPRLPRPRPRPSYTPRP | -1.38
118 | RRIRYRPPRLPRPRPRPSYVPRP | -1.29
119 | RRIRYRPPRLPRPRPRPTALPRP | -0.0277
120 | RRIRYRPPRLPRPRPRPTCGPRP | 0.0163
121 | RRIRYRPPRLPRPRPRPTCIPRP | -0.257
122 | RRIRYRPPRLPRPRPRPTCLPRP | -0.821
123 | RRIRYRPPRLPRPRPRPTDKPRP | -0.347
124 | RRIRYRPPRLPRPRPRPTEVPRP | -0.016
125 | RRIRYRPPRLPRPRPRPTFEPRP | -0.274

Row | Sequence | shrunken log2 fold change
126 | RRIRYRPPRLPRPRPRPTFQPRP | -0.0033
127 | RRIRYRPPRLPRPRPRPTGSPRP | 0.0529
128 | RRIRYRPPRLPRPRPRPTGYPRP | -1.16
129 | RRIRYRPPRLPRPRPRPTKIPRP | -0.373
130 | RRIRYRPPRLPRPRPRPTLFPRP | -0.145
131 | RRIRYRPPRLPRPRPRPTNAPRP | -0.24
132 | RRIRYRPPRLPRPRPRPTNHPRP | -0.709
133 | RRIRYRPPRLPRPRPRPTPQPRP | 0.161
134 | RRIRYRPPRLPRPRPRPTRSPRP | -0.581
135 | RRIRYRPPRLPRPRPRPTSEPRP | -0.0408
136 | RRIRYRPPRLPRPRPRPTTLPRP | -0.0157
137 | RRIRYRPPRLPRPRPRPTVDPRP | 0.0546
138 | RRIRYRPPRLPRPRPRPTVHPRP | -1.3
139 | RRIRYRPPRLPRPRPRPTVNPRP | -0.45
140 | RRIRYRPPRLPRPRPRPTVWPRP | 0.385
141 | RRIRYRPPRLPRPRPRPTVYPRP | -0.686
142 | RRIRYRPPRLPRPRPRPTYKPRP | -1.17
143 | RRIRYRPPRLPRPRPRPVAFPRP | -0.717
144 | RRIRYRPPRLPRPRPRPVATPRP | -0.281
145 | RRIRYRPPRLPRPRPRPVCTPRP | -0.569
146 | RRIRYRPPRLPRPRPRPVDSPRP | 0.0413
147 | RRIRYRPPRLPRPRPRPVDWPRP | 0.145
148 | RRIRYRPPRLPRPRPRPVFCPRP | -0.419
149 | RRIRYRPPRLPRPRPRPVFIPRP | -0.929
150 | RRIRYRPPRLPRPRPRPVFLPRP | -0.538
